Among the targets are Cf2-PBD-VP64 (human) (UniProt P06401); ER-KRAB (mouse; human) (UniProt P19785); ER-VP64 (mouse) (UniProt P19785).
What all share (assay): cell-based or functional assay

This note sets out measurements from patent publication US20030186841A1.

Sequence of ER-KRAB (mouse; human) (P19785 other isoform, or with tags, fused parts or gaps): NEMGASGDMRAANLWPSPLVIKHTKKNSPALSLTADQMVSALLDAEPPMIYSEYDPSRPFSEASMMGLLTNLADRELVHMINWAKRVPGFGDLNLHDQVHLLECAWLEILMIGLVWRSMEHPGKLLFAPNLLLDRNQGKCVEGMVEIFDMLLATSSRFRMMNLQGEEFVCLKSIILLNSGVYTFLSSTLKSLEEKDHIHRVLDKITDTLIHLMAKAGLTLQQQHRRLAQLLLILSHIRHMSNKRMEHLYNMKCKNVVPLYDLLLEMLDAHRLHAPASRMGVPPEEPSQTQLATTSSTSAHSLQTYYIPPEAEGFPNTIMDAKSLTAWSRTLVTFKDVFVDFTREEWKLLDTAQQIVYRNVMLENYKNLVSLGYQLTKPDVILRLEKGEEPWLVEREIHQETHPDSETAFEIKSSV
Sequence of Cf2-PBD-VP64 (human) (P06401 640-914): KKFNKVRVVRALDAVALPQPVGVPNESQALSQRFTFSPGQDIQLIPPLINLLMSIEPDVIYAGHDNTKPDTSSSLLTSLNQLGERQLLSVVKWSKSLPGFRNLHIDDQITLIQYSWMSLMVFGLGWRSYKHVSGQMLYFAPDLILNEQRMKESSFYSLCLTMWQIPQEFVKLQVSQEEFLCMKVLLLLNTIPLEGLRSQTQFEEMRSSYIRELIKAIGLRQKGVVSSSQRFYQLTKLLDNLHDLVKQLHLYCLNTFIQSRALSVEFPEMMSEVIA
Sequence of C7-PBD-VP64 (P06401 640-914): as above

Substance “C7-PBD-VP64 (from UniProt P06401 640-914)” gave a luciferase assay, C7-Cf2 TATA reporter, ligand-dependent change in transcription in the assay with Cf2-PBD-VP64 (human) of 2 fold.

As for E2C-ER (from UniProt P19785 282-599), the luciferase assay, tamoxifen-dependent repression of the erbB-2 promoter with ER-KRAB (mouse; human) came out at 2.9 fold. In the assay with ER-VP64 (mouse), this substance yielded a luciferase assay, erbB-2 promoter activity in HeLa cells, with and without Tamoxifen of 3 fold; a luciferase assay, tamoxifen-dependent activation of the erbB-2 promoter of 5.3 fold.
